From paper doi:10.1101/2025.05.03.651265

Legend:
[1] = biological target: E2CTD, C-terminal toxin domain of the GA1 T6SS effector E2 from Parabacteroides sp. D25 (Parabacteroides sp. D25); assay: ITC; details: natural protein
[2] = biological target: E2CTD, C-terminal toxin domain of the GA1 T6SS effector E2 from Parabacteroides sp. D25 (Parabacteroides sp. D25); assay: SEC-MALS; co-purified E2CTD-I2 complex at 2 mg/ml, Superdex 200 Increase 10/300, MiniDAWN detector and Optilab

For “I2^BU, divergent cognate I2 protein from B. uniformis 82G1”, the Kd [1] was 18 nM.

With “cognate I2 immunity protein from Parabacteroides sp. D25, expressed and purified alone” the Kd [1] was 27 nM.

“I2^PV, divergent cognate I2 protein from P. vulgatus AF31-3” showed a Kd [1] of 5.2 nM.

In the case of “cognate I2 immunity protein from Parabacteroides sp. D25, untagged, co-expressed with E2CTD (natural protein)”, the stoichiometry N [2] is reported as 1.
